B1: PAIP1 peptide 126-141 (Polyadenylate-binding protein-interacting protein 1), 16-mer library wild type / PABPC1 PABC (PABPC1 PABC domain, residues 544-623) (parent)
chain 1: SKLSVNAPEFYPSGYS
chain 2: PLTASMLASAPPQEQKQMLGERLFPLIQAMHPTLAGKITGMLLEIDNSELLHMLESPESLRSKVDEAVAVLQAHQAKEAA
B2: TPTE2 peptide 94-109 (Phosphatidylinositol 3,4,5-trisphosphate 3-phosphatase TPTE2), 16-mer library wild type / TLN1 PTB (TLN1 Phosphotyrosine-binding (PTB) domain, residues 309-401) (parent)
chain 1: DLIFTDSKLYIPLEYR
chain 2: GVSFFLVKEKMKGKNKLVPRLLGITKECVMRVDEKTKEVIQEWNLTNIKRWAASPKSFTLDFGDYQDGYYSVQTTEGEQIAQLIAGYIDIILK
B3: PEX5 peptide 238-253 (Peroxisomal targeting signal 1 receptor), 16-mer library wild type / PEX14 Pex14 (PEX14 PEX14, residues 16-84) (parent)
chain 1: AQAEQWAAEFIQQQGT
chain 2: TPGSENVLPREPLIATAVKFLQNSRVRQSPLATRRAFLKKKGLTDEEIDMAFQQSGTAADEPSSLGPAT

Variants of: B1
Test: proteomic peptide phage display deep mutational scan (ProP-PD DMS): M13 P8 16-mer library selected against immobilised GST-tagged bait for four days (rounds), NGS of the eluted pools per day and pseudo-replica
Details: with PABPC1 PABC (PABPC1 PABC domain, residues 544-623); bait immobilised on MaxiSorp plates (10 µg), library pre-cleared on GST, 2 h binding at 4 °C, five washes; one round per day, days 1-4; value from days 2 and 3; keep out of graded; scale: average fractional NGS count over selection days 2 and 3

Screen value: each site, then its substitutions
chain 1 S4: A 0.00227 | K 0.000353 | N 8.32e-05
chain 1 P8: W 0.000763 | K 8.32e-05 | A 0.000105
chain 1 S1: M 0.0011
chain 1 A7: G 0.000863 | L 4.17e-05
chain 1 Y11: S 0.000332 | E 0.00111
chain 1 G14: Y 0.00125 | I 0.000195 | M 0.000578 | E 0.000246
chain 1 E9: F 0.00034 | M 0.00247
chain 1 V5: S 0.00056
chain 1 S13: Q 0 | F 0.000556
chain 1 L3: P 9.03e-05
chain 1 P12: Y 0.00157 | V 5.13e-05
chain 1 K2: A 0.000319 | I 0 | G 0.000321 | N 0.000212
chain 1 Y15: F 0.000589

Variants of: B2
Test: as above
Details: with TLN1 PTB (TLN1 Phosphotyrosine-binding (PTB) domain, residues 309-401); bait immobilised on MaxiSorp plates (10 µg), library pre-cleared on GST, 2 h binding at 4 °C, five washes; one round per day, days 1-4; value from days 2 and 3; keep out of graded; scale: average fractional NGS count over selection days 2 and 3

Screen value: each site, then its substitutions
chain 1 Y15: Q 0.00142 | D 0.00294 | P 0.00117 | I 0.00364 | W 0.00208 | H 0.000355 | L 0.00052 | E 0.00244 | S 0.00054 | M 0.00159 | A 0.00819 | G 0.000939 | V 0.000703 | N 0.000999 | T 0.0011 | F 0.000157
chain 1 F4: W 0.00189 | T 0
chain 1 T5: W 4.49e-05 | S 4.81e-05 | F 0.000105 | N 0.000128 | D 0 | I 0.000118 | L 0 | V 0.00155 | Y 8.75e-05 | E 0.000584 | H 5.61e-05 | R 0 | Q 0.00106
chain 1 L9: A 0.00044 | V 0.000711 | G 0.000626 | I 0.000157 | D 0 | T 2.4e-05 | R 0 | M 4.46e-05
chain 1 L2: Q 0 | Y 0.000116 | H 0.000178 | V 0.00592 | F 5.85e-05 | A 0.000378 | W 4.75e-05 | N 2.74e-05 | T 0.000185 | G 0.000486 | D 9.22e-05 | E 0.000516 | P 0.000184 | M 0.00204 | S 3.05e-05
chain 1 I3: R 0.00161 | L 0.00133 | N 0.00121 | S 0.000211 | V 0.00384 | E 0.00388 | W 0.000147 | T 0.00253 | A 2.4e-05 | K 0.00351 | D 0.0027 | F 0.0002 | Q 0.00339 | Y 0.000244 | H 4.16e-05 | M 0.000353
chain 1 D6: E 0.000625 | S 0.000216 | W 3.79e-05 | M 0 | G 0 | A 3.11e-05 | H 3.45e-05 | T 0.000144 | Y 3.05e-05 | N 6.84e-05
chain 1 Y10: R 0 | F 6.96e-05 | W 0.00022
chain 1 I11: H 0.000432 | S 7.21e-05 | F 6.22e-05 | M 3.76e-05 | D 2.74e-05 | V 0.0012 | Q 7.15e-05 | R 0.000323 | T 0.000474 | L 0.00308 | K 3.45e-05 | E 0.000129 | Y 5.14e-05
chain 1 P12: A 0 | E 0 | W 0
chain 1 D1: Q 3.51e-05 | T 0.000148 | P 0.00123 | W 4.41e-05 | E 0.000184 | A 9.19e-05 | I 0 | F 2.74e-05 | H 0 | K 0 | N 7.86e-05 | G 0.00013 | S 0.000249
chain 1 S7: D 0 | T 6.44e-05 | A 0
chain 1 K8: M 0.000286 | Q 0.00121 | T 9.24e-05 | D 0.00103 | R 0.00105 | P 0.0034 | H 0.00014 | N 0.000705 | S 0.00137 | G 0.000416 | V 0 | L 0.000141 | Y 9.03e-05 | E 0.000109 | I 0 | A 0.0039
chain 1 E14: F 9.64e-05 | Q 0.000195 | V 3.45e-05 | K 0.000193 | G 0.00107 | S 6.5e-05 | W 2.8e-05 | D 0.00114 | A 0.00053 | L 6.19e-05 | T 0.000246 | P 0.00048
chain 1 L13: E 5.82e-05 | R 0.000367 | T 0.000339 | Q 0.000253 | N 6.62e-05 | G 0.000105 | P 0.000483 | H 2.74e-05 | M 0.00103 | Y 0 | V 4.1e-05 | A 0.0028 | K 0.00129 | S 0.0004

Variants of: B3
Test: as above
Details: with PEX14 Pex14 (PEX14 PEX14, residues 16-84); bait immobilised on MaxiSorp plates (10 µg), library pre-cleared on GST, 2 h binding at 4 °C, five washes; one round per day, days 1-4; value from days 2 and 3; keep out of graded; scale: average fractional NGS count over selection days 2 and 3

Screen value of substitutions, site by site:
chain 1 Q2: R 7.71e-05 | S 0.000758 | A 0 | T 0.000198 | E 0 | N 7.71e-05 | P 0.00113
chain 1 E4: M 0.000893 | Y 0.000168 | K 0.00104 | I 0.000318 | G 0.00183 | A 0.000155 | W 0.00183 | V 0
chain 1 I11: H 0.00108 | G 0.000289 | Q 0.00134 | K 0.000266 | F 0.000739 | D 0.00263 | Y 0.000717 | S 0.000456 | V 0 | W 0 | T 0.000576 | E 0.00192 | P 0.00284
chain 1 Q13: F 0.000134 | Y 0.000125 | G 0.000627 | H 0 | A 0.00172 | L 0.00111 | T 0.000335 | K 0 | M 0.000454 | S 0 | D 0.000183 | R 0.00284
chain 1 E9: A 0.00516 | G 0.000159 | T 0.00204 | S 0.000566 | I 0 | Q 0.000716 | M 0.000215 | D 0.00183 | K 0.0012 | H 0.0023
chain 1 W6: F 0.000898 | L 0
chain 1 A3: Y 0.000443 | G 0.000791 | E 0.000385 | S 0.000376 | V 0.000366 | D 0.000241 | W 0 | N 0.00244 | I 0 | P 0.000153 | L 0 | T 0.000152 | M 0.000674
chain 1 T16: A 0.000218 | L 0.000704 | D 0.000181 | H 0.00132 | G 0 | V 0.00206 | S 0.000223 | Q 0.00068 | E 0 | W 0.00013 | P 0.000382 | M 0.000253 | N 0.000881
chain 1 Q5: T 0.00028 | S 0.000207 | F 0 | E 0 | A 0.000195 | H 0.000302 | N 9.07e-05 | W 0 | I 7.71e-05 | K 0
chain 1 G15: V 0.000135 | K 0 | D 0.000327 | W 0.000703 | Y 0 | I 0 | S 0.000212 | R 0.000288
chain 1 F10: W 0.00148 | I 0.000137 | S 0.000175 | Q 0.000673 | Y 0.000488 | H 0.014
chain 1 Q14: S 0.00134 | W 0.000797 | F 0.000215 | K 0 | E 0 | I 0.00105 | T 0 | D 0.000186 | R 0.0013 | G 0.00214 | V 0.000266 | H 0.000732
chain 1 A8: W 0.00148 | P 0 | G 0.00272 | S 0.000444 | D 0 | L 0.00137 | M 0.0014 | R 0.000559 | Q 0.00013 | F 0.00013 | V 0.00138
chain 1 A7: L 0.00129 | D 0 | G 0.00166 | R 0.00151 | N 0 | V 0 | Y 0.00359 | S 0.00111 | F 0.000286 | I 0.000152 | H 0.00597
chain 1 Q12: M 0.00226 | K 0.000341 | T 0.000592 | F 0.000147 | S 0.00055 | W 0.000355 | E 0 | V 0.000188 | A 0 | P 0.000699 | R 0 | L 0.000406 | G 0.000368

— publication PMC12102759
